Assay results from US5891679A, “TNF-alpha muteins and a process for preparing them” (priority 1993, dated 1999).

How the values were obtained:
L929 cells = assay: L929 cell killing (cytotoxic/cytolytic/tumoricidal) assay; format: cell-based, mouse
Method: L929 fibrosarcoma cells were obtained from the Rega Institute, Leuven, Belgium.
After 18 h of culture at 37° C., viability of the cell cultures was assessed by dye uptake analysis. […] The plates were read spectrophotometrically at 577 nm with a Titertek multiscan MCC340 ELISA Reader (Flow Laboratories, McLean, Va.).

[1] = tested on: human interleukin-6 (IL6); assay: IL6 production by hMVECb cells; format: cell-based; conditions: for IL6 concentration: 24 hours
Method: Subsequently, the IL6 concentration in the supernatant of the cells was assessed using a commercially available hIL6 ELISA kit (Medgenix, Belgium).

[2] = tested on: 3LL-R Lewis lung carcinoma cells; assay: Experimental metastasis inducing capacity on TNF resistant 3LL-R Lewis lung carcinoma cells; format: in vivo, mouse (C57bl/6); conditions: for general condition of mice / mean lung weight: 17 days; for mean lung weight: 5 μg/mouse i.p. 5 hours prior to 3LL-R cells; for metastasis enhancing potential compared with wild type TNF: 3LL-R
Method: At this time, all mice were killed and the lung weight as well as the amount of cancer cell nodules in the lung was assessed.

[3] = In vivo half life of wild type and tip-deleted TNF-α (serum concentration)
Method: An ELISA assay to measure the protein concentration of the wild type and tip-deleted or tip-mutated mouse TNF-α protein was developed. […] Subsequently, the plates were washed once with washing buffer (PBS, 0.05% Tween-20) and the remaining binding sites were blocked for at least one hour at 37° C. with 300 μl per well of PBS buffer supplemented with 1% BSA and 0.1% NaN3. Dilutions of sample or standard mTNF-α (0.01 to 10 ng/ml mTNF-α), made in 100 μl of PBS supplemented with 1% BSA, 1% rabbit serum, and 0.1% mertiolate are then added to each well and incubated for 2 hours at 37° C. […] Subsequently, the plates are washed four times with washing buffer wherafter 100 μl of straptavidin-horseradish peroxidase (Jackson Immunoresearch Labs), which has been diluted in sample diluent to a concentration of 100 ng/ml is added and incubated for 30 minutes at 37° C. […] The reaction is stopped by adding 100 μl per well of 2N H2SO4 wherafter the optical density is read at dual wavelength (450/595 nm).
Female 8 weeks old C57bL/6 mice (6 mice/group--Charles Rivers Deutshland) were injected intraperitoneally with 1 μg/mouse of either wild type mouse TNF-α or tip deleted TNF-α. Subsequently, the mice were bled 0.5, 5, 10, 15, 30, 60, 120, 180, or 240 minutes post-injection.

[4] = tested on: Trypanosoma brucei brucei; assay: In vitro trypanocidal assay, T. brucei brucei; format: cell-based; conditions: for mortality of trypanosomes: data not shown
Method: (§1) The Trypanosoma brucei brucei AnTat 1.1 (EATRO 1125) pleomorphic bloodstream form was kindly provided to us by Dr. N. Van Meirvenne of the Institute for Tropical Medecine, Antwerp, Belgium, and the Trypanosoma brucei rhodesiense Trp 11 pleomorphic bloodstream form was kindly provided to us by Dr. E. Bajyana Songa (Dept. Molecular Biology, Free University of Brussels, Belgium)
(§2) After 5 h of incubation, the number of live (=moving) parasites was assessed (counting chamber) and compared the control wells in which only incubation medium was added to the trypanosomes. […] All treatments were done in quadruplicate and all reported in vitro trypanolysis experiments were repeated at least 3 times.

C57BL/6 mice = assay: TNF-α-induced lethal shock in mice; format: in vivo, mouse (C57BL/6)
Method: Female 10-weeks old C57BL/6 mice (Iffa Credo, France) were used in all in vivo TNF-induced lethal shock experiments.
Intravenous (i.v.) injection of 10-week-old C57BL/6 mice with 10 μg/mouse of mTNF-α causes death within 48 hours.
Ten weeks old C57BL/6 mice (5 to 6/group) were injected with different doses of wild type or mutant mouse TNF-α and the postinjection survival time was then assessed.

[5] = tested on: human interleukin 8 (IL8); assay: IL8 production by hMVECb cells; format: cell-based; conditions: for IL8 concentration: 24 hours; for IL8 induction compared with wild type: human endothelial brain cells
[6] = tested on: Trypanosoma brucei rhodesiense; assay: In vitro trypanocidal assay, T. brucei rhodesiense; format: cell-based; conditions: 5 h; for mortality of trypanosomes: data not shown
Method: as §1, §2

[7] = mTNF-α 1000 pg/ml, +p55 (5 μg/ml)
[8] = mTNF-α 10000 pg/ml, +p55 (5 μg/ml)
[9] = Experiment 1, 0.5 minutes, 1 μg/mouse i.p.
[10] = Experiment 1, 5 minutes, 1 μg/mouse i.p.
[11] = Experiment 1, 10 minutes, 1 μg/mouse i.p.
[12] = Experiment 1, 15 minutes, 1 μg/mouse i.p.
[13] = Experiment 1, 30 minutes, 1 μg/mouse i.p.
[14] = Experiment 1, 60 minutes, 1 μg/mouse i.p.
[15] = Experiment 1, 120 minutes, 1 μg/mouse i.p.
[16] = Experiment 1, 180 minutes, 1 μg/mouse i.p.
[17] = Experiment 1, 240 minutes, 1 μg/mouse i.p.
[18] = Experiment 2, 0.5 minutes, 1 μg/mouse i.p.
[19] = Experiment 2, 15 minutes, 1 μg/mouse i.p.
[20] = Experiment 2, 30 minutes, 1 μg/mouse i.p.
[21] = Experiment 2, 60 minutes, 1 μg/mouse i.p.
[22] = Experiment 2, 120 minutes, 1 μg/mouse i.p.
[23] = Experiment 2, 180 minutes, 1 μg/mouse i.p.
[24] = Experiment 2, 240 minutes, 1 μg/mouse i.p.

## mTNF-α: Purified recombinant mouse tumor necrosis factor-alpha, produced in E. coli
L929 cells; bioactivity on L929 cells, purified wild type
  specific activity: ~2×10^8 U/mg
L929 cells; mTNF-α 100 pg/ml, +p55 (5 μg/ml)
  Tumoricidal activity (% lysis): 0 ± 1%
L929 cells; mTNF-α 100 pg/ml, -p55
  Tumoricidal activity (% lysis): 40 ± 2%
L929 cells; [7]
  Tumoricidal activity (% lysis): 0 ± 1%
L929 cells; mTNF-α 1000 pg/ml, -p55
  Tumoricidal activity (% lysis): 92 ± 3%
L929 cells; [8]
  Tumoricidal activity (% lysis): 93 ± 3%
L929 cells; mTNF-α 10000 pg/ml, -p55
  Tumoricidal activity (% lysis): 98 ± 4%
L929 cells; purified recombinant, produced in E. coli, assay not stated
  specific activity: 10^8 units/mg
[1]; 333 pg/ml, experiment 1
  IL6 concentration: 1520 pg/mL
[1]; 333 pg/ml, experiment 2
  IL6 concentration: 1900 pg/mL
[1]; 1000 pg/ml, experiment 1
  IL6 concentration: 1250 pg/mL
[1]; 1000 pg/ml, experiment 2
  IL6 concentration: 1400 pg/mL
[1]; 1666 pg/ml, experiment 1
  IL6 concentration: 1220 pg/mL
[1]; 1666 pg/ml, experiment 2
  IL6 concentration: 1300 pg/mL
[2]
  general condition of mice: all suffered from severe respiration problems
  mean lung weight: 1088.2 ± 315.7
[3]; [9]
  concentration TNF-α: 1000 ng/mL
[3]; [10]
  concentration TNF-α: 880 ng/mL
[3]; [11]
  concentration TNF-α: 650 ng/mL
[3]; [12]
  concentration TNF-α: 500 ng/mL
[3]; [13]
  concentration TNF-α: 420 ng/mL
[3]; [14]
  concentration TNF-α: 320 ng/mL
[3]; [15]
  concentration TNF-α: 20 ng/mL
[3]; [16]
  concentration TNF-α: 10 ng/mL
[3]; [17]
  concentration TNF-α: 0 ng/mL
[3]; [18]
  concentration TNF-α: 1000 ng/mL
[3]; [19]
  concentration TNF-α: 550 ng/mL
[3]; [20]
  concentration TNF-α: 500 ng/mL
[3]; [21]
  concentration TNF-α: 480 ng/mL
[3]; [22]
  concentration TNF-α: 20 ng/mL
[3]; [23]
  concentration TNF-α: 0 ng/mL
[3]; [24]
  concentration TNF-α: 0 ng/mL
[4]; T. brucei brucei, 5 h
  concentration at which 50% of the animals (parasites) are killed: 5000 pg/mL
[4]; in vitro trypanocidal assay
  trypanocidal specific activity: 2×10^5 U/mg of protein
[4]; mTNF-α 100 pg/ml, +p55 (5 μg/ml soluble p55 hTNF-α receptor)
  Trypanocidal activity (% lysis): 25 ± 3%
[4]; mTNF-α 100 pg/ml, -p55
  Trypanocidal activity (% lysis): 30 ± 2%
[4]; [7]
  Trypanocidal activity (% lysis): 41 ± 4%
[4]; mTNF-α 1000 pg/ml, -p55
  Trypanocidal activity (% lysis): 45 ± 5%
[4]; [8]
  Trypanocidal activity (% lysis): 56 ± 3%
[4]; mTNF-α 10000 pg/ml, -p55
  Trypanocidal activity (% lysis): 60 ± 4%
C57BL/6 mice; C57BL/6 mice
  lethal dose: 10 μg/mouse
C57BL/6 mice; i.v. 10 μg/mouse
  time to death: ≤ 48 h
[5]; 333 pg/ml, experiment 1
  IL8 concentration: 1050 pg/mL
[5]; 333 pg/ml, experiment 2
  IL8 concentration: 1700 pg/mL
[5]; 1000 pg/ml, experiment 1
  IL8 concentration: 1680 pg/mL
[5]; 1000 pg/ml, experiment 2
  IL8 concentration: 1800 pg/mL
[5]; 1666 pg/ml, experiment 1
  IL8 concentration: 1200 pg/mL
[5]; 1666 pg/ml, experiment 2
  IL8 concentration: 1650 pg/mL
[6]
  concentration at which 50% of the animals (parasites) are killed: 5000 pg/mL

B1: mouse interleukin 1β: mouse interleukin 1β (protein, UniProt P10749 118-269, looked up)
Interleukin-1 beta: VPIRQLHYRLRDEQQKSLVLSDPYELKALHLNGQNINQQVIFSMSFVQGEPSNDKIPVALGLKGKNLYLSCVMKDGTPTLQLESVDPKQYPKKKMEKRFVFNKIEVKSKVEFESAEFPNWYISTSQAEHKPVFLGNNSGQDIIDFTMESVSS
[4]; T. brucei brucei, 5 h
  mortality of trypanosomes: do not cause any mortality
[6]
  mortality of trypanosomes: do not cause any mortality

B2: mouse interleukin 1α: mouse interleukin 1α (protein, UniProt P01582 115-270, looked up)
Interleukin-1 alpha: SAPYTYQSDLRYKLMKLVRQKFVMNDSLNQTIYQDVDKHYLSTTWLNDLQQEVKFDMYAYSSGGDDSKYPVTLKISDSQLFVSAQGEDQPVLLKELPETPKLITGSETDLIFFWKSINSKNYFTSAAYPELFIATKEQSRVHLARGLPSMTDFQIS
[4]; T. brucei brucei, 5 h
  mortality of trypanosomes: do not cause any mortality
[6]
  mortality of trypanosomes: do not cause any mortality

B3: del mTNF-α: tip-deleted mTNF-α; the TPEGAE coding sequence is deleted from the mTNF gene (protein)
chain: LRSSSQNSSDKPVAHVVANHQVEEQLEWLSQRANALLANGMDLKDNQLVVPADGLYLVYSQVLFKGQGCPDYVLLTHTVSRFAISYQEKVNLLSAVKSPCPKDLKPWYEPIYLGGVFQLEKGDQLSAEVNLPKYLDFAESGQVYFGVIAL
[1]; 333 pg/ml, experiment 1
  IL6 concentration: 760 pg/mL
[1]; 333 pg/ml, experiment 2
  IL6 concentration: 850 pg/mL
[1]; 1000 pg/ml, experiment 1
  IL6 concentration: 1180 pg/mL
[1]; 1000 pg/ml, experiment 2
  IL6 concentration: 1600 pg/mL
[1]; 1666 pg/ml, experiment 1
  IL6 concentration: 1240 pg/mL
[1]; 1666 pg/ml, experiment 2
  IL6 concentration: 1900 pg/mL
[1]; hMVECb
  IL6 induction compared with wild type: higher induction of human interleukin-6
[2]; listed as TNF tip deletion mutant
  metastasis enhancing potential compared with wild type TNF: considerably lower than that of wild type TNF
[2]; listed as mTNFα mutein carrying a deletion of the region extending from amino acids 105 to
  metastasis enhancing potential compared with wild type TNF: considerably lower in vivo metastasis enhancing potential
[2]
  general condition of mice: looked significantly better
  mean lung weight: 566 ± 318
[3]; 1 μg/mouse i.p.
  longer half life than wild type TNF-α: at least 2 fold
[3]; [9]
  concentration TNF-α: 1000 ng/mL
[3]; [10]
  concentration TNF-α: 990 ng/mL
[3]; [11]
  concentration TNF-α: 640 ng/mL
[3]; [12]
  concentration TNF-α: 550 ng/mL
[3]; [13]
  concentration TNF-α: 580 ng/mL
[3]; [14]
  concentration TNF-α: 450 ng/mL
[3]; [15]
  concentration TNF-α: 250 ng/mL
[3]; [16]
  concentration TNF-α: 100 ng/mL
[3]; [17]
  concentration TNF-α: 10 ng/mL
[3]; [18]
  concentration TNF-α: 1000 ng/mL
[3]; [19]
  concentration TNF-α: 600 ng/mL
[3]; [20]
  concentration TNF-α: 500 ng/mL
[3]; [21]
  concentration TNF-α: 500 ng/mL
[3]; [22]
  concentration TNF-α: 330 ng/mL
[3]; [23]
  concentration TNF-α: 240 ng/mL
[3]; [24]
  concentration TNF-α: 20 ng/mL
[3]; L929 cytotoxic assay and indirect ELISA
  in vivo half life compared with wild type: increased half life
[5]; 333 pg/ml, experiment 1
  IL8 concentration: 1800 pg/mL
[5]; 333 pg/ml, experiment 2
  IL8 concentration: 2450 pg/mL
[5]; 1000 pg/ml, experiment 1
  IL8 concentration: 1300 pg/mL
[5]; 1000 pg/ml, experiment 2
  IL8 concentration: 2200 pg/mL
[5]; 1666 pg/ml, experiment 1
  IL8 concentration: 850 pg/mL
[5]; 1666 pg/ml, experiment 2
  IL8 concentration: 1250 pg/mL
[5]; listed as deletion mutant of mTNFα in the region extending from amino acids 105 to 110
  IL8 induction compared with wild type: induce consistently less human interleukin 8 (IL8)
[5]; listed as tip deletion mutant
  IL8 induction compared with wild type: about two times more powerful in inducing the inflammatory cytokine IL8

B4: hTNF-β: Human recombinant TNF-β (lymphotoxin) (protein, UniProt P01374 35-205, looked up)
Lymphotoxin-alpha: LPGVGLTPSAAQTARQHPKMHLAHSTLKPAAHLIGDPSKQNSLLWRANTDRAFLQDGFSLSNNSLLVPTSGIYFVYSQVVFSGKAYSPKATSSPLYLAHEVQLFSSQYPFHVPLLSSQKMVYPGLQEPWLHSMYHGAAFQLTQGDQLSTHTDGIPHLVLSPSTVFFGAFAL
[4]; T. brucei brucei, 5 h
  mortality of trypanosomes: do not cause any mortality
[6]
  mortality of trypanosomes: do not cause any mortality
